Source: patent publication US20060073152A1 (Genentech, published 2006)
Positions of bridges follow the written chain, without caps; N, C: chain ends. No end group written: not given here.

B1: RB-B16 (peptide)
peptide: HRLVEDICLPRWGCLWGNDF
modifications: not fully specified (bridges); cysteine pairing not given here; also: phage-displayed
notes: on phage
B2: HC-R10 (peptide)
peptide: QRDMGDICLPRWGCLWEDGV
modifications: not fully specified (bridges); cysteine pairing not given here; also: phage-displayed
notes: on phage
B3: RB-B12 (peptide)
peptide: QGLIGDICLPRWGCLWGDSV
notes: on phage; also called RB-R8
B4: RB-R16 (peptide)
peptide: LIFMEDVCLPQWGCLWEDGV
notes: on phage
B5: RB-B10 (peptide)
peptide: QGDFWDICLPRWGCLSGEGY
notes: on phage
B6: RB-B3 (peptide)
peptide: QSYMEDICLPRWGCLSDDAS
modifications: not fully specified (bridges); cysteine pairing not given here; also: phage-displayed
notes: on phage
B7: BA-B39 (peptide)
peptide: MELWCDSTLMAYDLCGDFNM
notes: on phage
B8: RB-B9 (peptide)
peptide: QMHMMDICLPKWGCLWGDTS
modifications: not fully specified (bridges); cysteine pairing not given here
notes: on phage
B9: RB-B14 (peptide)
peptide: LRIFEDICLPKWGCLWGEGF
notes: on phage
B10: BA-B44 (peptide)
peptide: GEDWCDSTLLAFDLCGEGAR
notes: on phage
B11: RB-B1 (peptide)
peptide: RWQTEDVCLPKWGCLFGDGV
modifications: not fully specified (bridges); cysteine pairing not given here; also: phage-displayed
notes: on phage
B12: BA-B37 (peptide)
peptide: GENWCDWVLLAYDLCGEDNT
notes: on phage
B13: RBC-R6 (peptide)
peptide: FEDLCVVRWGCLWGD
modifications: not fully specified (bridges); cysteine pairing not given here
notes: on phage
B14: RD-R6 (peptide)
peptide: DSCGDLLRLGLECWA
notes: on phage
B15: RBC-R14 (peptide)
peptide: EEDLCLPVWGCLWGA
notes: on phage
B16: RBC-R4 (peptide)
peptide: FEDFCLPNWGCLWGS
notes: on phage
B17: RBC-R9 (peptide)
peptide: SEDFCLPVWGCLWED
modifications: not fully specified (bridges); cysteine pairing not given here
notes: on phage
B18: RBC-R5 (peptide)
peptide: WEDLCLPDWGCLWED
modifications: not fully specified (bridges); cysteine pairing not given here
notes: on phage
B19: RBC-R13 (peptide)
peptide: EFDLCLPTWGCLWED
notes: on phage
B20: RBC-R10 (peptide)
peptide: DFDLCLPDWGCLWDD
notes: on phage
B21: RBC-R2 (peptide)
peptide: MDDLCLPNWGCLWGD
modifications: not fully specified (bridges); cysteine pairing not given here
notes: on phage
B22: RBC-R20 (peptide)
peptide: EEDVCLPVWGCLWEG
notes: on phage
B23: RBC-R18 (peptide)
peptide: EWDVCFPAWGCLWDQ
notes: on phage
B24: RBC-R8 (peptide)
peptide: NWDLCFPDWGCLWDD
notes: on phage
B25: RD-R2 (peptide)
peptide: DTCADLVRLGLECWA
notes: on phage
B26: RD-R5 (peptide)
peptide: DTCEDLVRLGLECWA
notes: on phage
B27: RD-R7 (peptide)
peptide: NTCADLVRLGLECWA
notes: on phage
B28: RD-R1 (peptide)
peptide: DTCSDLVGLGLECWA
notes: on phage
B29: RBC-R15 (peptide)
peptide: MWDVCFPDWGCLWDV
modifications: not fully specified (bridges); cysteine pairing not given here
notes: on phage
B30: RD-R11 (peptide)
peptide: DTCDDLVQLGLECWA
notes: on phage
B31: RBC-R1 (peptide)
peptide: MDDICLHHWGCLWDE
notes: on phage
B32: RBC-R12 (peptide)
peptide: MFDLCLPKWGCLWGN
modifications: not fully specified (bridges); cysteine pairing not given here
notes: on phage
B33: RBC-R11 (peptide)
peptide: VWDLCLPQWGCLWDE
notes: on phage
B34: SA31 (peptide)
peptide: Ac-RLIEDICLPRWGCLW-NH2
modifications: disulfide 7-13 (inferred)
notes: free peptide
B35: SA34 (peptide)
peptide: Ac-DICLPRWGCL-NH2
modifications: disulfide 3-9 (inferred)
notes: free peptide
B36: SA18 (peptide)
peptide: ICLPRWGCLW-NH2
modifications: not fully specified (bridges); printed as ICLPRWGCLWNH2; cysteine pairing not given here
notes: free peptide
B37: SA26 (peptide)
peptide: Ac-DICLPRWGCLWED-NH2
modifications: disulfide 3-9 (inferred)
notes: free peptide
B38: SA33 (peptide)
peptide: Ac-RLIEDICLPRWGCL-NH2
modifications: disulfide 7-13 (inferred)
notes: free peptide
B39: SA27 (peptide)
peptide: Ac-ICLPRWGCLWED-NH2
modifications: disulfide 2-8 (inferred)
notes: free peptide
B40: SA24 (peptide)
peptide: Ac-IEDICLPRWGCLWED-NH2
modifications: not fully specified (bridges); printed as Ac IEDICLPRWGCLWEDNH2; cysteine pairing not given here
notes: free peptide
B41: SA19 (peptide)
peptide: DICLPRWGCL-NH2
modifications: not fully specified (bridges); printed as DICLPRWGCLNH2; cysteine pairing not given here
notes: free peptide
B42: SA30 (peptide)
peptide: Ac-IEDICLPRWGCLWE-NH2
modifications: disulfide 5-11 (inferred)
notes: free peptide
B43: SA29 (peptide)
peptide: Ac-RLIEDICLPRWGCLWE-NH2
modifications: disulfide 7-13 (inferred)
notes: free peptide
B44: SA32 (peptide)
peptide: Ac-EDICLPRWGCLW-NH2
modifications: disulfide 4-10 (inferred)
notes: free peptide
B45: SA20 (peptide)
peptide: Ac-QRLIEDICLPRWGCLWEDDF-NH2
modifications: not fully specified (bridges); printed as Ac QRLIEDICLPRWGCLWEDDF NH2; cysteine pairing not given here
notes: free peptide
B46: SA23 (peptide)
peptide: Ac-LIEDICLPRWGCLWED-NH2
modifications: not fully specified (bridges); printed as Ac LIEDICLPRWGCLWEDNH2; cysteine pairing not given here
notes: free peptide
B47: SA25 (peptide)
peptide: Ac-EDICLPRWGCLWED-NH2
modifications: not fully specified (bridges); printed as Ac EDICLPRWGCLWEDNH2; cysteine pairing not given here
notes: free peptide
B48: SA22 (peptide)
peptide: Ac-RLIEDICLPRWGCLWED-NH2
modifications: not fully specified (bridges); printed as Ac RLIEDICLPRWGCLWEDNH2; cysteine pairing not given here
notes: free peptide

Target: T1, human serum albumin (human, UniProt P02768 25-609)
T1 construct: also called Human SA; HuSA
Assay: phage binding

Row | Binder | binding result
1 | B1 | binds
2 | B2 | binds
3 | B3 | binds
4 | B4 | binds

Target: T2, rabbit serum albumin (rabbit, UniProt P49065 25-608)
T2 construct: also called Rabbit SA; BuSA
T2 sequence (P49065 25-608 limits assumed): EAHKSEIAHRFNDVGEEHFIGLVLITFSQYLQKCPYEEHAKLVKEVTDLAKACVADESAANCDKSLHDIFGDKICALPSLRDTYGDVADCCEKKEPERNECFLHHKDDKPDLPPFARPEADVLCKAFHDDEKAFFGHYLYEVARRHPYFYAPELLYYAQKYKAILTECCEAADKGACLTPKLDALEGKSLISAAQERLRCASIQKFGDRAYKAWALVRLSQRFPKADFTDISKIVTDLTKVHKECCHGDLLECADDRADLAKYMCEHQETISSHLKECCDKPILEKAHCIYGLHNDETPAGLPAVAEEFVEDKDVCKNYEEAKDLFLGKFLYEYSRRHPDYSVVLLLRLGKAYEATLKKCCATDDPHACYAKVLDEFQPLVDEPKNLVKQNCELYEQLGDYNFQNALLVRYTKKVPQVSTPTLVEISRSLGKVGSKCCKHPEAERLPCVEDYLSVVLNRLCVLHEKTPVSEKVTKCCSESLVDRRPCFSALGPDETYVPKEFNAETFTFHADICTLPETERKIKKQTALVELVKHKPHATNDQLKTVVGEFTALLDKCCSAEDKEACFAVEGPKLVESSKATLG
Assay: phage binding

Row | Binder | binding result
5 | B1 | binds
6 | B5 | binds
7 | B6 | binds
8 | B2 | binds
9 | B7 | binds
10 | B3 | binds
11 | B4 | binds
12 | B8 | binds
13 | B9 | binds
14 | B10 | binds
15 | B11 | binds
16 | B12 | binds

Target: T3, rat serum albumin (rat, UniProt P02770 25-608)
T3 construct: also called Rat SA; RSA
T3 sequence (P02770 25-608 limits assumed): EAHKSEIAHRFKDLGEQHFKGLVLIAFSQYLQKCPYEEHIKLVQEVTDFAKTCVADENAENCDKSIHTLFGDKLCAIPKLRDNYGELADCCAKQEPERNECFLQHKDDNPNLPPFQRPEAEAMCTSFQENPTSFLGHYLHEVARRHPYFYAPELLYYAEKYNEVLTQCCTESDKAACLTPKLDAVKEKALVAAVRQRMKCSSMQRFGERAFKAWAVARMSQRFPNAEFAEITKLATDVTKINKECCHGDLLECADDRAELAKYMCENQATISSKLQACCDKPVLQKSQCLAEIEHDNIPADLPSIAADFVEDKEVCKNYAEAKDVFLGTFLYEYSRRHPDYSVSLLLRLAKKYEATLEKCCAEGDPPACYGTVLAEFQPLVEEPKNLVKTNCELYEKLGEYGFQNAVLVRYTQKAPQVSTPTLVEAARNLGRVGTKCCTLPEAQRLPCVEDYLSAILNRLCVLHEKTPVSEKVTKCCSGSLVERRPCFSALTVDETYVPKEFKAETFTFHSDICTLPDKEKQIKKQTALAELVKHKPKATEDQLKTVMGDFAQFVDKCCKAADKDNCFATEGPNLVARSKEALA
Assay: phage binding

Row | Binder | binding result
17 | B13 | binds
18 | B14 | binds
19 | B15 | binds
20 | B16 | binds
21 | B1 | binds
22 | B17 | binds
23 | B18 | binds
24 | B19 | binds
25 | B5 | binds
26 | B20 | binds
27 | B21 | binds
28 | B22 | binds
29 | B23 | binds
30 | B24 | binds
31 | B6 | binds
32 | B2 | binds
33 | B25 | binds
34 | B26 | binds
35 | B27 | binds
36 | B3 | binds
37 | B4 | binds
38 | B28 | binds
39 | B29 | binds
40 | B8 | binds
41 | B30 | binds
42 | B9 | binds
43 | B31 | binds
44 | B11 | binds
45 | B32 | binds
46 | B33 | binds

Target: T2, rabbit serum albumin
Assay: peptide competition; head prints RSA, read as rabbit

Row | Binder | IC50
47 | B34 | 0.2 µM
48 | B35 | 28.2 µM
49 | B36 | 125 µM
50 | B37 | 3.12 µM
51 | B38 | 4.31 µM
52 | B39 | 86.7 µM
53 | B40 | 1.38 µM
54 | B41 | 24.5 µM
55 | B42 | 1.8 µM
56 | B43 | 0.4 µM
57 | B44 | 2.17 µM
58 | B45 | 0.26 µM
59 | B46 | 0.36 µM
60 | B47 | 2.73 µM
61 | B48 | 0.43 µM
